Consider 33 molecules from patent publication US7026282B1, “Peptide antagonists of the human urokinase receptor and method for selecting them” (Cancerforskningsfonden AF 1989 (Fonden Til Fremme AF …, priority 1998, dated 2006).

“Also recorded” adds a separate entry of the source. Starred links: 1 amine or outer side, 2 acyl side, 3 side chain; linkers in the order of their positions; H or OH if unused. Non-standard residues stand in square brackets, D forms with d. No end group written: not given here. DMB = N-(2,3-dimethoxybenzyl)glycine, COc1cccc(CN(CC(=O)[*:2])[*:1])c1OC; Gly(N(CH2)2(3-indolyl)) = O=C(O)CNCCc1c[nH]c2ccccc12; 2Nal = N[C@@H](Cc1ccc2ccccc2c1)C(=O)O; AMN = N-(methylnaphthalyl)glycine; Cha = N[C@@H](CC1CCCCC1)C(=O)O; Nme = COCCNCC(=O)O; βAla = NCCC(=O)O

Series [1] concerns the target soluble recombinant variant of human uPAR (suPAR) (human) (UniProt Q03405). Briefly: SPR (Biacore), ligand over immobilised neuramimidase-treated human suPAR. Background: Surface plasmon resonance follows binding to a sensor surface in real time, without labels.
Series [2] concerns the target T1, neuramimidase-treated human suPAR (soluble recombinant uPAR) (Homo sapiens, UniProt Q03405).
T1 construct: A soluble recombinant variant of human uPAR (suPAR) was expressed in Chinese hamster ovary (dhfr) cells; made in house; host or cells: Chinese hamster ovary (dhfr) cells
Briefly: Biacore Binding Assay (surface plasmon resonance), ligand binding to immobilised suPAR. Conditions: for kdiss (dissociation rate constant, off-rate): Biacore, 5° C., immobilised suPAR; for Relative kdiss: relative to the Growth Factor Domain of uPA (GFD = 1.0); for dissociation constant compared with other peptides: peptomer analogues; for human uPAR binding after introduction of spacing residues: spacer between D-arginine and L-tyrosine. The procedure: Association rate constants (kass), dissociation rate constants (kdiss) and equilibrium binding constants (kd) for various synthetic peptides and receptor binding derivatives of human uPA were determined by surface plasmon resonance (R. Karlsson et al. (1991) J. Immunol. Meths. 145:229–240) using a BIAcore2000™ instrument (Pharmacia Biosensor, Uppsala, Sweden). Due to the low isoelectric point of uPAR (pI≈4.5) terminal sialic acid residues were removed from its N-linked carbohydrates to facilitate chemical immobilisation on the sensor chip. This was accomplished by incubating purified suPAR (1 mg/ml in 50 mM phosphate, 150 mM NaCl, pH 7.4) with 5 μg/ml neuramimidase for 4 hours at 37° C. […] Coupling of the neuramimidase-treated suPAR to a BIAcore sensor chip was achieved by injection of 20 μg/ml suPAR in 10 mM sodium acetate pH 5.0 for 6 minutes at a flow rate of […] per minute using a carboxymethylated dextran matrix (CM5 sensor chip) preactivated with N-hydroxysuccinimide/N-ethyl-N′-[3-([…])propyl]carbodiimide according to the manufacturer's recommendations. Approximately 1,500–2,000 resonance units (RU) were immobilised by this procedure (corresponding to 1–2 ng suPAR/mrn^2).
Sensorgrams (RU versus time) were recorded (FIG. 2) at a flow rate of 10 μl per min at 5° C. using several different concentrations of the ligand (synthetic peptides, uPA, the amino-terminal fragment (ATF) of uPA, or the growth factor domain (GFD) of uPA) in the range of 10 to 1000 nM in running buffer (10 mM HEPES, 150 mM NaCl, 3 mM EDTA (pH 7.4) including 0.005% surfactant P-20). Stock solutions of peptides from combinatorial chemistry were made in DMSO (10 mg peptide/ml DMSO). The sensor chip was regenerated at the end of each run by injection of 0.1 M acetic acid, 0.5 M NaCl. Data obtained from parallel mock coupled flow cells (subjected to the coupling procedure in the presence of buffer only) served as blank sensorgrams for subtraction of changes in bulk refractive index. The sensorgrams obtained were analysed by non-linear least squares fitting using BIAevaluation 2.0 software (Pharmacia Biosensor, Uppsala, Sweden) assuming single-site association and dissociation models.
Purified human suPAR (1 mg/ml in 50 mM phosphate, 150 mM NaCl, pH 7.4) was incubated with 5 μg/ml neuramimidase for 4 hours at 37° C.
In order to couple the neuramimidase-treated suPAR to a BIAcore sensor chip, 20 μg/ml suPAR in 10 mM sodium acetate (pH 5.0) was injected for 6 minutes at a flow rate of 5 μl per minute using a carboxymethylated dextran matrix (CM5 sensor chip), thereby immobilising approximately 1,500–2,000 resonance units (RU), which correspond to 1–2 ng suPAR/mm^2. The CM5 sensor chip was preactivated with N-hydroxysuccinimide/N-ethyl-N′-[3-([…])propyl]carbodiimide in accordance with the manufacturer's recommendations.
Surface plasmon resonance sensorgrams (RU versus time) were recorded at a flow rate of 10 μl per min at 5° C. using several different concentrations of the ligand (i.e. the relevant peptide or GFD) in the range from 10 to 1000 nM in running buffer (10 mM HEPES, 150 mM NaCl, 3 mM EDTA (pH 7.4) including 0.005% surfactant P-20).
The sensor chip was regenerated at the end of each run by injection of 0.1 M acetic acid, 0.5 M NaCl.
Data from parallel mock coupled flow cells (subjected to the coupling procedure in the presence of buffer only) served as blank sensorgrams for subtraction of changes in bulk refractive index.
The obtained sensorgrams were analysed by non-linear least squares fitting using BIAevaluation 2.0 software (Pharmacia Biosensor, Uppsala, Sweden) assuming single-site ssociation and dissociation models.

Chain of soluble recombinant variant of human uPAR (suPAR) (human) (Q03405 23-299, change not shown): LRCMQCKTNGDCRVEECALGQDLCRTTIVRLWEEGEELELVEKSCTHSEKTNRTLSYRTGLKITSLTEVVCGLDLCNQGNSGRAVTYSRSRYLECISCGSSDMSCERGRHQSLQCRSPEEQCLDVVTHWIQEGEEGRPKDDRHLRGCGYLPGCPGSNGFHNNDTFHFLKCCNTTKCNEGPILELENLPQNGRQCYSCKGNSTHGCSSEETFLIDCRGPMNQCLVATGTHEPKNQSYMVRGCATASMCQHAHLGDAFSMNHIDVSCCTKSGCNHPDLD
T1 sequence (Q03405 23-305 limits assumed): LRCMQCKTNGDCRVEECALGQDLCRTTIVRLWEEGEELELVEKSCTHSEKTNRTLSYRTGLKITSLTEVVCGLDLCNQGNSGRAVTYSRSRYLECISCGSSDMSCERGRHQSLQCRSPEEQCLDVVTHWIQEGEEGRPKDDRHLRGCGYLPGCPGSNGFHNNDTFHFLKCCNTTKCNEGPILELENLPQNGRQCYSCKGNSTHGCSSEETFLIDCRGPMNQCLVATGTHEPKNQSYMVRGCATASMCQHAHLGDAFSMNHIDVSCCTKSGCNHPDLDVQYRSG

As usually defined, the koff is the first-order rate constant of dissociation. For the molecule AE100 (peptide), in series [1], the Relative kdiss (relative to GFD) came out at 4 and the koff was found to be 0.00056 s⁻¹.
As for “ATF: amino-terminal-fragment (ATF) of human uPA”, in series [2], the “kdiss (dissociation rate constant, off-rate)” value is 0.00012 s⁻¹ and the Relative kdiss was found to be 0.86.
The corresponding values for “D-Cha-F-s-r-Cha-L-W-l (D[Cha]F[dS][dR][Cha]LW[dL]) [AE132]” are 0.00053 s⁻¹ and 3.8.
“D-Cha-F-s-r-DMB-f-AMN-MEA (D[Cha]F[dS][dR][DMB][dF][AMN][Nme]) [AE126, peptide-peptoid hybrid (peptomer)]”: in series [2], the “kdiss (dissociation rate constant, off-rate)” value worked out at 0.00037 s⁻¹; the “dissociation constant compared with other peptides” value was “same order of magnitude as the best of the peptides; also recorded: approximating those of AE105 and AE110”; the Relative kdiss is recorded as 2.6.
Consider “D-Cha-F-s-r-DMB-f-DMB-l (D[Cha]F[dS][dR][DMB][dF][DMB][dL]) [AE129, peptide-peptoid hybrid (peptomer)]”, for which, in series [2], the “kdiss (dissociation rate constant, off-rate)” value was found to be 0.00054 s⁻¹ and the Relative kdiss is listed as 3.9.
For the molecule “D-Cha-F-s-r-DMB-f-TRA-MEA (D[Cha]F[dS][dR][DMB][dF][Gly(N(CH2)2(3-indolyl))][Nme]) [AE124, peptide-peptoid hybrid (peptomer)]”, in series [2], the “kdiss (dissociation rate constant, off-rate)” value turned out to be 0.00561 s⁻¹; the “dissociation constant compared with other peptides” value is on record as “same order of magnitude as the best of the peptides”; the Relative kdiss is reported as 40.0.
The corresponding values for “D-Cha-F-s-r-DMLB-f-Bzl-MEA [AE125, peptide-peptoid hybrid (peptomer)]” are 0.00074 s⁻¹, “same order of magnitude as the best of the peptides” and 5.3.
For the molecule “D-Cha-F-s-r-L-L-W-h (D[Cha]F[dS][dR]LLW[dH]) [AE130]”, in series [2], the “kdiss (dissociation rate constant, off-rate)” value is 0.00051 s⁻¹ and the Relative kdiss was 3.6.
In the case of “D-Cha-F-s-r-MEA-DMB-f-AMN (D[Cha]F[dS][dR][Nme][DMB][dF][AMN]) [AE128, peptide-peptoid hybrid (peptomer)]”, in series [2], the “kdiss (dissociation rate constant, off-rate)” value was “no binding”; the “dissociation constant compared with other peptides” value was “same order of magnitude as the best of the peptides”; the Relative kdiss is on record as >>100.
Consider “D-Cha-F-s-r-Y-L-Nal-h (D[Cha]F[dS][dR]YLX[dH]; not fully specified (residue 8); printed as D-Cha-F-s-r-Y-L-Nal-h) [AE131]”, for which, in series [2], the “kdiss (dissociation rate constant, off-rate)” value stood at 0.00056 s⁻¹ and the Relative kdiss came out at 4.0.
The corresponding values for “DChaFSrYLWS (DXFSRYLWS; D-residues; non-natural residues; cyclised or stapled) [AE106]” are 0.00263 s⁻¹ and 18.7.
The corresponding values for “DChaFsRYLWS (DXFSRYLWS; D-residues; non-natural residues; cyclised or stapled) [AE110]” are 0.00028 s⁻¹ and 2.0.
Consider “DChaFsrGYLWS (D[Cha]F[dS][dR]GYLWS) [AE116]”, for which, in series [2], the “kdiss (dissociation rate constant, off-rate)” value is reported as “no binding”; the Relative kdiss is given as >>100; the “human uPAR binding after introduction of spacing residues” value was “abolished the binding”.
The corresponding values for “DChaFsrβAYLWS (D[Cha]F[dS][dR][βAla]YLWS) [AE117]” are “no binding”, >>100 and “abolished the binding”.
Consider DFFsrYLWS (DFF[dS][dR]YLWS) [AE112], for which, in series [2], the “kdiss (dissociation rate constant, off-rate)” value amounted to 0.00181 s⁻¹ and the Relative kdiss was found to be 12.9.
The corresponding values for DNFsrYLWS (DNF[dS][dR]YLWS) [AE113] are “no binding” and >>100.
The corresponding values for DchaFsrYL^1nAS [AE114] are 0.00059 s⁻¹ and 4.2.
As to LNFsQYLWS (LNF[dS]QYLWS) [AE111], in series [2], the “kdiss (dissociation rate constant, off-rate)” value came out at 0.00105 s⁻¹ and the Relative kdiss is 7.5.
The corresponding values for SLChaFsQYLWS (SL[Cha]F[dS]QYLWS) are 0.00349 s⁻¹ and 24.9.
SLNFSQYLWS (AE68) [reference compound]: in series [2], the “kdiss (dissociation rate constant, off-rate)” value was found to be 0.0129 s⁻¹ and the Relative kdiss was found to be 92.1.
With “amino-terminal-fragment (ATF) of human uPA (from UniProt P00749 21-155) (ligand)”, in series [1], the Relative kdiss (relative to GFD) stood at 0.86 and the koff came out at 0.00012 s⁻¹.
Take “arFhhYLWS ([dA][dR]F[dH][dH]YLWS) [AE104]”: in series [2], the “kdiss (dissociation rate constant, off-rate)” value was “no binding” and the Relative kdiss is on record as >>100.
The corresponding values for “dChaFSrYLWS (DXFSRYLWS; D-residues; non-natural residues; cyclised or stapled) [AE107]” are 0.00884 s⁻¹ and 63.1.
“dChaFsrYLWs (DXFSRYLWS; not fully specified; D-residues; non-natural residues; cyclised or stapled)”: in series [2], the “kdiss (dissociation rate constant, off-rate)” value came out at 0.00068 s⁻¹ and the Relative kdiss was determined as 4.9.
The corresponding values for “dChaFsrYL^2nAS ([dD][Cha]F[dS][dR]YL[2Nal]S) [AE109]” are 0.00205 s⁻¹ and 14.6.
The corresponding values for “eChaFsYYLWS ([dE][Cha]F[dS]YYLWS) [AE115]” are 0.00167 s⁻¹ and 11.9.
The corresponding values for “eChaFsyYLWS ([dE][Cha]F[dS][dY]YLWS) [AE100]” are 0.00056 s⁻¹ and 4.0.
Regarding “tChaFsrYLWS ([dT][Cha]F[dS][dR]YLWS) [AE108]”, in series [2], the “kdiss (dissociation rate constant, off-rate)” value worked out at 0.00048 s⁻¹ and the Relative kdiss is 3.4.
As to DXFSRYLWS (D-Asp at 1; beta-cyclohexyl-L-alanine (Cha) at 2; D-Arg at 5) [AE107], in series [1], the Relative kdiss (relative to GFD) amounted to 63.1 and the koff is 0.00884 s⁻¹.
Take D[Cha]F[dS][dR][βAla]YLWS (not fully specified; printed as DChaFsrβAYLWS) [AE117]: the Relative kdiss (relative to GFD) in series [1] is above 100.
For the molecule DXFSRYLWS (beta-cyclohexyl-L-alanine (Cha) at 2; D-Arg at 5) [AE106], in series [1], the Relative kdiss (relative to GFD) was determined as 18.7 and the koff is 0.00263 s⁻¹.
With D[Cha]F[dS][dR]GYLWS (not fully specified) [AE116], the Relative kdiss (relative to GFD) in series [1] was above 100.
With SLNFSQYLWS [AE68], in series [1], the Relative kdiss (relative to GFD) worked out at 92.1 and the koff worked out at 0.0129 s⁻¹.
